In US20220202704A1, “PHARMACEUTICAL PARENTERAL COMPOSITION OF DUAL GLP1/2 AGONIST” (Zealand Pharma A/S, priority 2019, published 2022):
*1 amine or outer side, *2 acyl side, *3 side chain or, on linkers, in order; H or OH if unused. Where no end group is shown, it is not given here. Side-chain parts run from the residue outwards. [ ]: non-standard residue; d: D form. The star is where a group is joined. C18 diacid = O=C(O)CCCCCCCCCCCCCCCCC(=O)*; γGlu = O=C(O)[C@H](CCC(=O)[*:2])N[*:1]; Aib = CC(C)(N)C(=O)O

Assay: Physical stability via ThT, fibril formation (ASSAY IVc)
Assay type: physicochemical
Design: key to Aggregation (fibrillation, ThT): FD = Fibrillation Detected; FND = Fibrillation Not Detected
Conditions: for Aggregation (fibrillation, ThT): 40° C. 4 days
Experimental: Samples were prepared in a total volume of 0.5 mL API (herein e.g. CPD1) stock solutions were prepared by dissolving API in demineralised water at ambient temperature (typically 25° C.) to achieve 5 and 25 mg/mL API, respectively. 8 working solutions were prepared: 1) 40 mM phosphate pH 6 and 80 μM ThT; 2) 40 mM phosphate pH 6.5 and 80 μM ThT; 3) 40 mM phosphate pH 7 and 80 μM ThT; 4) 40 mM phosphate pH 8 and 80 μM ThT; 5) 40 mM phosphate pH 6, 540 mM mannitol and 80 μM ThT; 6) 40 mM phosphate pH 6.5, 540 mM mannitol and 80 μM ThT; 7) 40 mM phosphate pH 7, 540 mM mannitol and 80 μM ThT; and 8) 40 mM phosphate pH 8, 540 mM mannitol and 80 μM ThT.
200 μL of API stock was mixed with 250 μL working solution, pH was measured and adjusted to target, followed by adding demineralised water to a final volume of 500 μL. Samples were loaded in a 96-well black fluorescence plate (clear bottom) in triplicate 3×150 μL. Data were collected at fixed intervals of 10 min, each preceded by 300 s of automixing (agitation), over a period of 96 hours at 40° C. Physical stability, expressed as lag-time of fibril formation (in hours), was defined as the intersection between two linear regressions representing the initial stable phase and the growth phase.

With “CPD1: any form of the compound comprising SEQ ID NO: 1 (CPD1OH or CPD1NH2 and any pharmaceutically acceptable salt thereof) (H-H[Aib]EGSFTSELATILDK([γGlu-C18 diacid])QAARDFIAWLIQHKITD; also: C-terminal acid or amide, both forms, salts)” the “Aggregation (fibrillation, ThT)” value (2 mg/mL CPD1, 20 mM phosphate pH 6, 270 mM mannitol) was “FD”, the “Aggregation (fibrillation, ThT)” value (2 mg/mL CPD1, 20 mM phosphate pH 6, no added tonicity agent) was “FD” and the “Aggregation (fibrillation, ThT)” value (2 mg/mL CPD1, 20 mM phosphate pH 6.5, 270 mM mannitol) was “FND”. The “Aggregation (fibrillation, ThT)” value (2 mg/mL CPD1, 20 mM phosphate pH 6.5, no added tonicity agent) was “FND”, the “Aggregation (fibrillation, ThT)” value (2 mg/mL CPD1, 20 mM phosphate pH 7, 270 mM mannitol) was “FND” and the “Aggregation (fibrillation, ThT)” value (2 mg/mL CPD1, 20 mM phosphate pH 7, no added tonicity agent) was “FND”. The “Aggregation (fibrillation, ThT)” value (2 mg/mL CPD1, 20 mM phosphate pH 8, 270 mM mannitol) was “FND”, the “Aggregation (fibrillation, ThT)” value (2 mg/mL CPD1, 20 mM phosphate pH 8, no added tonicity agent) was “FND” and the “Aggregation (fibrillation, ThT)” value (10 mg/mL CPD1, 20 mM phosphate pH 6, 270 mM mannitol) was “FD”. For the same substance, the “Aggregation (fibrillation, ThT)” value (10 mg/mL CPD1, 20 mM phosphate pH 6, no added tonicity agent) was “FD”, the “Aggregation (fibrillation, ThT)” value (10 mg/mL CPD1, 20 mM phosphate pH 6.5, 270 mM mannitol) was “FND” and the “Aggregation (fibrillation, ThT)” value (10 mg/mL CPD1, 20 mM phosphate pH 6.5, no added tonicity agent) was “FND”. The “Aggregation (fibrillation, ThT)” value (10 mg/mL CPD1, 20 mM phosphate pH 7, 270 mM mannitol) was “FND”, the “Aggregation (fibrillation, ThT)” value (10 mg/mL CPD1, 20 mM phosphate pH 7, no added tonicity agent) was “FND” and the “Aggregation (fibrillation, ThT)” value (10 mg/mL CPD1, 20 mM phosphate pH 8, 270 mM mannitol) was “FND”. For the same substance, the “Aggregation (fibrillation, ThT)” value (10 mg/mL CPD1, 20 mM phosphate pH 8, no added tonicity agent) was “FND”, the “Amyloid formation / fibrillation” value (2 and 10 mg/mL CPD1, pH 6) was “amyloid formation was observed” and the “Amyloid formation / fibrillation” value (2 and 10 mg/mL CPD1, pH 7 or 8) was “no fibrillation was observed”. For the same substance, the “Aggregation propensity, mannitol as tonicity agent compared to control (no tonicity agent)” value (pH range 6-8, 40° C. 4 days) was “No difference”.
